Results: patent publication US20250011363A1, “OPTIMIZED SHORTENED PEPTIDE THAT BINDS TO ACETYLCHOLINE RECEPTOR, AND USE THEREOF” (SKINMED CO., LTD., priority 2021, published 2025)
Values belong to the binder of their own block, whether it stands above or below them.

Assays:
acetylcholine receptor [1] = experiment: SPR, AchR on chip, peptide 10 uM
acetylcholine receptor [2] = experiment: SPR, receptor immobilized on CM5 chip, peptide 10 uM

B1: 5mer-328 (peptide)
peptide: RWVLK
Binding affinity (RU) (acetylcholine receptor [1]): 61 RU

B3: 5mer-331 (peptide)
peptide: RGIQR
Binding affinity (RU) (acetylcholine receptor [1]): 79 RU

B5: 6mer-2-431 (peptide)
peptide: KLILKR
Binding affinity (RU) (acetylcholine receptor [2]): 135 RU

B7: 5mer-329 (peptide)
peptide: RRFCR
Binding affinity (RU) (acetylcholine receptor [1]): 79 RU

B8: 6mer-2-430 (peptide)
peptide: RWFRRR
Binding affinity (RU) (acetylcholine receptor [2]): 139 RU

B10: 5mer-37 (peptide)
peptide: RRLSR
Binding affinity (RU) (acetylcholine receptor [1]): 72 RU

B11: 5mer-28 (peptide)
peptide: RLLSR
Binding affinity (RU) (acetylcholine receptor [1]): 74 RU

B13: 5mer-30 (peptide)
peptide: KSQLR
Binding affinity (RU) (acetylcholine receptor [1]): 70 RU

B15: 6mer-2-428 (peptide)
peptide: KVFLKK
Binding affinity (RU) (acetylcholine receptor [2]): 142 RU

B17: 6mer-2-426 (peptide)
peptide: KGQRRK
Binding affinity (RU) (acetylcholine receptor [2]): 141 RU

B20: 5mer-330 (peptide)
peptide: RWQLR
Binding affinity (RU) (acetylcholine receptor [1]): 86 RU

B21: 5mer-31 (peptide)
peptide: RRLQR
Binding affinity (RU) (acetylcholine receptor [1]): 65 RU

B22: 6mer-2-433 (peptide)
peptide: RWIQKR
Binding affinity (RU) (acetylcholine receptor [2]): 139 RU

B23: 5mer-36 (peptide)
peptide: RRLQK
Binding affinity (RU) (acetylcholine receptor [1]): 60 RU

B26: 5mer-335 (peptide)
peptide: KSLTR
Binding affinity (RU) (acetylcholine receptor [1]): 56 RU

B27: 6mer-2-415 (peptide)
peptide: KGRCKK
Binding affinity (RU) (acetylcholine receptor [2]): 149 RU

B28: 5mer-326 (peptide)
peptide: RRFTK
Binding affinity (RU) (acetylcholine receptor [1]): 68 RU

B29: 5mer-35 (peptide)
peptide: RWQYK
Binding affinity (RU) (acetylcholine receptor [1]): 80 RU

B30: 6mer-2-421 (peptide)
peptide: KVICRK
Binding affinity (RU) (acetylcholine receptor [2]): 124 RU

B32: 5mer-29 (peptide)
peptide: KGFCR
Binding affinity (RU) (acetylcholine receptor [1]): 63 RU

B34: 6mer-2-429 (peptide)
peptide: RWRQRK
Binding affinity (RU) (acetylcholine receptor [2]): 123 RU

B35: 5mer-38 (peptide)
peptide: RGYCK
Binding affinity (RU) (acetylcholine receptor [1]): 53 RU

B37: 6mer-2-422 (peptide)
peptide: RLITRR
Binding affinity (RU) (acetylcholine receptor [2]): 154 RU

B38: 5mer-26 (peptide)
peptide: RQQQR
Binding affinity (RU) (acetylcholine receptor [1]): 65 RU

B41: 6mer-2-427 (peptide)
peptide: RLQRRR
Binding affinity (RU) (acetylcholine receptor [2]): 147 RU

B42: 6mer-2-416 (peptide)
peptide: RWRLRR
Binding affinity (RU) (acetylcholine receptor [2]): 131 RU

B43: 6mer-2-432 (peptide)
peptide: KVVRKR
Binding affinity (RU) (acetylcholine receptor [2]): 148 RU

B45: 5mer-27 (peptide)
peptide: KGYLR
Binding affinity (RU) (acetylcholine receptor [1]): 67 RU

B46: 6mer-2-417 (peptide)
peptide: RWVYKK
Binding affinity (RU) (acetylcholine receptor [2]): 151 RU

B47: 6mer-2-424 (peptide)
peptide: RLYCKK
Binding affinity (RU) (acetylcholine receptor [2]): 139 RU

B48: 6mer-2-423 (peptide)
peptide: RLQYRK
Binding affinity (RU) (acetylcholine receptor [2]): 154 RU

B49: 6mer-2-425 (peptide)
peptide: KLQTKK
Binding affinity (RU) (acetylcholine receptor [2]): 145 RU

B52: 5mer-33 (peptide)
peptide: RRISK
Binding affinity (RU) (acetylcholine receptor [1]): 59 RU

B54: 5mer-32 (peptide)
peptide: RQLSR
Binding affinity (RU) (acetylcholine receptor [1]): 75 RU

B60: 5mer-34 (peptide)
peptide: KRIRK
Binding affinity (RU) (acetylcholine receptor [1]): 82 RU

B62: 6mer-2-418 (peptide)
peptide: RVQYKK
Binding affinity (RU) (acetylcholine receptor [2]): 121 RU

B66: 5mer-327 (peptide)
peptide: RVLCR
Binding affinity (RU) (acetylcholine receptor [1]): 86 RU

B67: 6mer-2-419 (peptide)
peptide: RSRYKK
Binding affinity (RU) (acetylcholine receptor [2]): 154 RU

B68: 5mer-337 (peptide)
peptide: KGRSR
Binding affinity (RU) (acetylcholine receptor [1]): 67 RU

B69: 6mer-2-420 (peptide)
peptide: RRQYRK
Binding affinity (RU) (acetylcholine receptor [2]): 128 RU

B70: 5mer-336 (peptide)
peptide: KSVSR
Binding affinity (RU) (acetylcholine receptor [1]): 83 RU

B72: 5mer-334 (peptide)
peptide: KRFYK
Binding affinity (RU) (acetylcholine receptor [1]): 64 RU

B74: 5mer-332 (peptide)
peptide: RRYCR
Binding affinity (RU) (acetylcholine receptor [1]): 85 RU

B76: 5mer-333 (peptide)
peptide: RVLQR
Binding affinity (RU) (acetylcholine receptor [1]): 67 RU

The remaining lines, values ahead:

Binding affinity (RU) (acetylcholine receptor [2]): 139 RU
B2: 6mer-2-441 (peptide)
peptide: KSQRKR

Binding affinity (RU) (acetylcholine receptor [2]): 147 RU
B4: 6mer-2-456 (peptide)
peptide: KSVTKR

Binding affinity (RU) (acetylcholine receptor [2]): 139 RU
B6: 6mer-2-459 (peptide)
peptide: KLFSRK

Binding affinity (RU) (acetylcholine receptor [2]): 124 RU
B9: 6mer-2-463 (peptide)
peptide: KLLTRR

Binding affinity (RU) (acetylcholine receptor [2]): 121 RU
B12: 6mer-2-437 (peptide)
peptide: KQVCKK

Binding affinity (RU) (acetylcholine receptor [2]): 139 RU
B14: 6mer-2-460 (peptide)
peptide: RSQCRK

Binding affinity (RU) (acetylcholine receptor [2]): 128 RU
B16: 6mer-2-448 (peptide)
peptide: RSFRRR

Binding affinity (RU) (acetylcholine receptor [2]): 154 RU
B18: 6mer-2-449 (peptide)
peptide: RGRCRR

Binding affinity (RU) (acetylcholine receptor [2]): 146 RU
B19: 6mer-2-452 (peptide)
peptide: KGLYKR

Binding affinity (RU) (acetylcholine receptor [2]): 122 RU
B24: 6mer-2-443 (peptide)
peptide: RQYCRR

Binding affinity (RU) (acetylcholine receptor [2]): 133 RU
B25: 6mer-2-454 (peptide)
peptide: RSVQKK

Binding affinity (RU) (acetylcholine receptor [2]): 139 RU
B31: 6mer-2-447 (peptide)
peptide: RVYTKK

Binding affinity (RU) (acetylcholine receptor [2]): 146 RU
B33: 6mer-2-457 (peptide)
peptide: RRVYKR

Binding affinity (RU) (acetylcholine receptor [2]): 145 RU
B36: 6mer-2-462 (peptide)
peptide: KQICKR

Binding affinity (RU) (acetylcholine receptor [2]): 142 RU
B39: 6mer-2-466 (peptide)
peptide: RLLTRR

Binding affinity (RU) (acetylcholine receptor [2]): 153 RU
B40: 6mer-2-439 (peptide)
peptide: KWFSKR

Binding affinity (RU) (acetylcholine receptor [2]): 154 RU
B44: 6mer-2-434 (peptide)
peptide: RVIRRK

Binding affinity (RU) (acetylcholine receptor [2]): 153 RU
B50: 6mer-2-440 (peptide)
peptide: KQLSKK

Binding affinity (RU) (acetylcholine receptor [2]): 122 RU
B51: 6mer-2-458 (peptide)
peptide: RRFQRR

Binding affinity (RU) (acetylcholine receptor [2]): 149 RU
B53: 6mer-2-461 (peptide)
peptide: KSVCRR

Binding affinity (RU) (acetylcholine receptor [2]): 123 RU
B55: 6mer-2-450 (peptide)
peptide: RQRYRK

Binding affinity (RU) (acetylcholine receptor [2]): 148 RU
B56: 6mer-2-451 (peptide)
peptide: RGRCKK

Binding affinity (RU) (acetylcholine receptor [2]): 145 RU
B57: 6mer-2-445 (peptide)
peptide: RLVCKR

Binding affinity (RU) (acetylcholine receptor [2]): 153 RU
B58: 6mer-2-446 (peptide)
peptide: RQLQKK

Binding affinity (RU) (acetylcholine receptor [2]): 148 RU
B59: 6mer-2-436 (peptide)
peptide: KVLYKR

Binding affinity (RU) (acetylcholine receptor [2]): 142 RU
B61: 6mer-2-467 (peptide)
peptide: KQYSRR

Binding affinity (RU) (acetylcholine receptor [2]): 154 RU
B63: 6mer-2-435 (peptide)
peptide: RWVYKR

Binding affinity (RU) (acetylcholine receptor [2]): 122 RU
B64: 6mer-2-465 (peptide)
peptide: KGVSKR

Binding affinity (RU) (acetylcholine receptor [2]): 141 RU
B65: 6mer-2-444 (peptide)
peptide: RQRLKK

Binding affinity (RU) (acetylcholine receptor [2]): 135 RU
B71: 6mer-2-464 (peptide)
peptide: KSFRKK

Binding affinity (RU) (acetylcholine receptor [2]): 141 RU
B73: 6mer-2-453 (peptide)
peptide: RLVRKK

Binding affinity (RU) (acetylcholine receptor [2]): 135 RU
B75: 6mer-2-455 (peptide)
peptide: RWYSKR

Binding affinity (RU) (acetylcholine receptor [2]): 139 RU
B77: 6mer-2-442 (peptide)
peptide: RLVQKR

Binding affinity (RU) (acetylcholine receptor [2]): 131 RU
B78: 6mer-2-438 (peptide)
peptide: RLLCRK
